Laboratory results from patent publication US20230406948A1 (APEXIGEN, published 2023).

How the values were obtained:
[1] = target: T1, human CD40 on cells (native CD40 on Ramos cells, human B cells, human monocyte-derived dendritic cells); cell … (human, UniProt P25942 21-193); experiment: cell-based or functional assay
[2] = target: T1, human CD40 on cells (native CD40 on …); experiment: FACS on live Ramos cells, goat anti-human IgG (H+L) PE
Method: (§1) In another experiment, the ability of the CD40 antibodies to bind to native CD40 protein was determined by FACS analysis with live Ramos cells. Ramos cells were harvested and blocked with 1.5 ml blocking buffer (0.1% BSA/PBS) for 30 minutes. Antibodies at various concentrations were added to cells and incubated for 1 hour. After washing, 50 ul Goat-anti-human IgG (H+L) PE antibody at 1:1000 dilution in blocking solution was added and incubated for 30 minutes. Cells were then washed with PBS and were re-suspended with […] and analyzed by FACS. The antibodies tested were the 19-21 rabbit anti-CD40 agonist antibody, SGN-40 developed by Seattle Genetics and CP870893 from Pfizer.

[3] = target: T1, human CD40 on cells (native CD40 on …); experiment: FACS on live Ramos cells, goat anti-human IgG PE
Method: as §1

[4] = target: T1, human CD40 on cells (native CD40 on …); experiment: cell-based or functional assay; remark: listed apart in the source
CD40-Fc protein = target: T2, CD40-Fc protein (Homo sapiens (Human), UniProt P25942 21-193); experiment: ELISA, plates coated with CD40-Fc protein, OD405nm
T2 construct: not shown: Fc
T2 sequence (P25942 21-193 limits assumed): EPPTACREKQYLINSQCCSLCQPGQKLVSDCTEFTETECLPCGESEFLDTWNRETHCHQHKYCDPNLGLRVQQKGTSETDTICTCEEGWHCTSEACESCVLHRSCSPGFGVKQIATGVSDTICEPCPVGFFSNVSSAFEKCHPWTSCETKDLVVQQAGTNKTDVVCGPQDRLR
Source text: In order to assess the ability of the APX005 […] mutant to bind to CD40, APX005 S267E heavy chain and light chain plasmids were purified from transformed bacteria and transfected into 293-6E cell. Four days after transfection, antibody-containing culture supernatants were collected and tested for binding to CD40 using ELISA (ELISA plates coated with CD40-Fc protein).

T1 sequence (P25942 21-193): as the sequence (P25942 21-193 limits assumed) above

Binder | Pro-apoptosis activity (IC50) [1] [µg/mL] | EC50 [2] [µg/mL] | further results
cR-8, chimeric R-8 (rabbit Fab and human IgG1) (antibody, V domains shown) VH: QSLEESGGDLVKPGASLTLTCTASGFSFSSTYVCWVRQAPGKGLEWIACIYTGDGTNYSASWAKGRFTISKPSSTTVTLQMTSLTPADTATYFCARPDITYGFAINFWGPGTLVTVSS VL: DIVMTQTPSSASEPVGGTVTIKCQASQSISSRLAWYQQKPGQPPKLLIYRASTLASGVPSRFKGSGSGTEFTLTISDLECADAATYYCQCTGYGISWPIGGGTEVVVK | 0.45 | – | –
APX005 S267E mutant (antibody, human IgG1, V domains shown) VH: QVQLVESGGGVVQPGRSLRLSCAASGFSFSSTYVCWVRQAPGKGLEWIACIYTGDGTNYSASWAKGRFTISKDSSKNTVYLQMNSLRAEDTAVYFCARPDITYGFAINFWGPGTLVTVSS VL: DIQMTQSPSSLSASVGDRVTIKCQASQSISSRLAWYQQKPGKPPKLLIYRASTLASGVPSRFSGSGSGTDFTLTISSLQPEDVATYYCQCTGYGISWPIGGGTKVEIK | – | 0.0266 | fold higher affinity than CP870893 [3]: 6 fold; EC50 (ng/ml), CD40 agonist activity: up-regulation of CD86 on human B cells [4]: 4.15 ng/mL; EC50 (CD40-Fc protein): 0.0551 µg/mL
CP870893 (antibody, V domains shown) VH: not shown VL: DIQMTQSPSSVSASVGDRVTITCRASQGIYSWLAWYQQKPGKAPNLLIYTASTLQSGVPSRFSGSGSGTDFTLTISSLQPEDFATYYCQQANIFPLTFGGGTKVEIK | – | 0.171 | EC50 (ng/ml), CD40 agonist activity: up-regulation of CD86 on human B cells [4]: 37 ng/mL

Continued, in another order:

Pro-apoptosis activity (IC50) [1] [µg/mL] | EC50 [2] [µg/mL] | Binder | further results
0.9 | – | cR-33, chimeric R-33 (rabbit Fab and human IgG1) (antibody, V domains shown) VH: QSLEESGGDLVKPGASLTLTCTASGFSFSSSYWICWVRQAPGKGLEWIACINTGSSVTTVYARWAKGRFTISKASSTTVTLQMTSLTAADTATYFCARYIIPGYNFNLWGPGTLVTVSS VL: AYDMTQTPASVEVAVGGTVTINCQASQSISSYLYWYQQKPGQPPKLLIYDASKLASGVPSRFKGSGSGTQFTLTITGVECADAATYYCQQGYSHINVDNIFGGGTEVVVK | –
0.02 | – | c19-21, chimeric 19-21 (rabbit Fab and human IgG1) (antibody, V domains shown) VH: QSLEESGGRLVTPGTPLTLTCTVSGFDLSSNAMNWVRQAPGKGLEWIGYITISGSAGYASWAKGRFTISKTSTTVDLKISSPTTEDTATYFCARGYNTMAIWGPGTLVTVSS VL: AQVLTQTPSPVSAPVGGTVTINCQSSQNVLINNRLAWYQQKPGQPPKLLIYDASKLASGVPSRFKGSGSGTQFTLTISGVQCDDAATYYCQAGYSSGDGNAFGGGTEVVVK | –
– | 0.0201 | 19-21 rabbit anti-CD40 agonist antibody (antibody, V domains shown, Whether the rabbit or the chimeric form was used there is not clear) VH: QSLEESGGRLVTPGTPLTLTCTVSGFDLSSNAMNWVRQAPGKGLEWIGYITISGSAGYASWAKGRFTISKTSTTVDLKISSPTTEDTATYFCARGYNTMAIWGPGTLVTVSS VL: AQVLTQTPSPVSAPVGGTVTINCQSSQNVLINNRLAWYQQKPGQPPKLLIYDASKLASGVPSRFKGSGSGTQFTLTISGVQCDDAATYYCQAGYSSGDGNAFGGGTEVVVK | –
0.57 | – | cR-3, chimeric R-3 (rabbit Fab and human IgG1) (antibody, V domains shown) VH: QSLEESGGDLVKPGASLTLTCTASGFSFSDSFWIAWVRQAPGKGLEWIGCIHALSSGSTYYANWARGRFTISKTSSTTVTLQMNSLTAADTATYFCARSYAGYADYNVATGLNLWGPGTLVTVSS VL: DVVMTQTPSSASAAVGGTVTTKCQASQSIGSYLAWYQQKPGQRPKLLIYAASNLASGVPSRFKGSRSGTEYTLTISGVQREDAATYYCLGSFTGSDTTFGGGTELEIL | –
